Data taken from the supplement of paper PMC12764529.
± gives the half width of the 95% confidence interval.

Legend:
[1] = folding stability dG unfold from chymotrypsin proteolysis; higher = more stable
In short: (§1)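 Only designs with AlphaFold2 dimer inter-PAE above 15 were retained; each was a mini-protein under 80 residues with no cysteine, in a PA-tagged cDNA display construct. After digestion with trypsin and chymotrypsin and sequencing, K50 was inferred by Bayesian fitting of counts, and unfolding free energy was derived per protease or combined against a sequence-predicted unfolded-state K50 and a shared folded-state K50.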

[2] = folding stability dG unfold from trypsin proteolysis; higher = more stable
In short: as §1

[3] = folding stability dG unfold (combined trypsin and chymotrypsin); higher = more stable
In short: as §1

Row | Sequence | folding stability dG unfold [1] | folding stability dG unfold [2] | folding stability dG unfold [3]
1 | SAGGSAGGSAGGMTPIEKEEPHHHMTFTREGDTVSLETFPGSGSIRKTLPSEEEVEKLLSAGGSAGGSAGGS [r10_1104_JUSTAS] | 0.156 ± 0.096 kcal/mol | -0.413 ± 0.071 kcal/mol | 0.00761 ± 0.11 kcal/mol
2 | SAGGSMRFKIEDINIGIIPHPPGWLLIPITVKVKFEEPDPDNGEPKTVEHEFPIMIMMPKDDLDDLSAGGSA [r2_184_TrROS] | 2.68 ± 0.045 kcal/mol | 2.01 ± 0.072 kcal/mol | 2.44 ± 0.14 kcal/mol
3 | SADVVVIHARSPEELRAALEEARKEGKTVRIVVSREELDELKALLPEDVKIEVLKNENGEELVVIEVKVSAG [r14_127_TrROS_Hall] | 3.11 ± 0.28 kcal/mol | 4.32 ± 0.23 kcal/mol | 4.15 ± 0.43 kcal/mol
4 | SAGGMTTTTTFDGPTDEAFDLPSGVKVEPEPATGGYRVELPPGREVEVTVERSTDPGTVTWTFTFKESAGGS [r16_122_JUSTAS] | 0.531 ± 0.16 kcal/mol | 0.3 ± 0.036 kcal/mol | 0.544 ± 0.078 kcal/mol
5 | SEETLRILIRDPATGELREIEVRAGETVTVTFPDGSTVTLRITVVAAPPPPPKTVTLDPNETVEEGETVLSA [r9_467_TrROS_Hall] | 1.9 ± 0.038 kcal/mol | 2.24 ± 0.084 kcal/mol | 2.1 ± 0.092 kcal/mol
6 | SAGGKEVLTVTVEVEIDGVLIRVEAEVTLDEDGNLTVTITRIEIRPLPPPKIDLRDLTDEQRKELGIESAGG [r13_964_TrROS_Hall] | 2.02 ± 0.086 kcal/mol | 2.04 ± 0.096 kcal/mol | 1.93 ± 0.13 kcal/mol
7 | SAGGMTILFEADSLEEARQAVEDLLRDLGIPAIAERITVEERTFRLPAGPGTRRFVLVTIDLRLEPPSAGGS [r16_587_TrMRF] | 2.522 ± 0.021 kcal/mol | 2.68 ± 0.031 kcal/mol | 2.62 ± 0.034 kcal/mol
8 | SAGGSAGGSAGGKTLTLEIEINGKLYKIEFSGDSIKITEIKVKPKPKKKEFFSEEELKKKSAGGSAGGSAGG [r7_748_TrROS_Hall] | 2.55 ± 0.13 kcal/mol | 0.563 ± 0.089 kcal/mol | 1.87 ± 0.31 kcal/mol
9 | SAGGSAGGSAGSMSVSVTKLPNGDYVVTTTTSETSTSTTGSTPVTTTTTTTTVTTLPSSSSAGGSAGGSAGG [r17_432_JUSTAS] | 0.775 ± 0.023 kcal/mol | 2.21 ± 0.048 kcal/mol | 1.57 ± 0.046 kcal/mol
10 | SAGGSGMEKYTVTIDLKFYTPETGKTYTKTVTLTTTSIEEAIKAITEKLTPPDMKIEITSITVTPSSAGGSA [r2_320_JUSTAS] | 4.62 ± 0.11 kcal/mol | 4.34 ± 0.25 kcal/mol | 4.62 ± 0.13 kcal/mol
11 | SAGGMITLEIELEDGTKIKIEITRLVSYDEEKGYAIFEAKITVEKDGKKFEKTITIIVKKGTKPGEIISAGG [r13_823_TrROS_Hall] | 4.01 ± 0.25 kcal/mol | 4.45 ± 0.43 kcal/mol | 4.19 ± 0.38 kcal/mol
12 | SGLLEKFLKEAEEWIKKLGLKVKPGEKVEIPIPFENNLIAKIEFYPGEKIIKVVLIGENKPVEYKFKIEKSA [r9_426_TrMRF] | 2.32 ± 0.17 kcal/mol | 1.53 ± 0.16 kcal/mol | 1.88 ± 0.45 kcal/mol
13 | SSLGPGELEVTELETTEEELPDGTTLKRTLSREIVPDPAGAGRVVLTETLSTVPPDGSETVTTLSVTVLASA [r9_838_JUSTAS] | -0.0934 ± 0.17 kcal/mol | -0.078 ± 0.13 kcal/mol | -0.138 ± 0.16 kcal/mol
14 | SAGGSAMEIEVEKNEDGTVTIRFRDKETGEEIEIEIEVEPGMTEEEVREKAEELAEELKKKGIEIESAGGSA [r15_1022_TrROS_Hall] | 2.73 ± 0.19 kcal/mol | 2.82 ± 0.19 kcal/mol | 2.89 ± 0.23 kcal/mol
15 | SAGGSPIISTEKSSSGVTTITFPDGTVVTEVTTPLPDGTVLTTTTVTPPNAPVSTTTTTDPVPPGLPSAGGS [r16_211_JUSTAS] | 0.702 ± 0.027 kcal/mol | 0.775 ± 0.062 kcal/mol | 0.767 ± 0.062 kcal/mol
16 | SAGGSAGGSAGGMPVEVTTLETRKDPAGTTTEITLDPKTGRTIIVTKYPNGGSETTVVESAGGSAGGSAGGS [r10_1118_JUSTAS] | 0.504 ± 0.065 kcal/mol | 0.788 ± 0.069 kcal/mol | 0.622 ± 0.17 kcal/mol
17 | SMPLLVKVDTPEQREKLLKVLEEIEKETDIKIELVSEHPDGKYEFLIEAPLEEAVKIAKKLKEAGNVEIVSA [r9_472_TrMRF] | 3.48 ± 0.12 kcal/mol | 3.89 ± 0.19 kcal/mol | 3.7 ± 0.1 kcal/mol
